Our source for the binding signal, Kd and binding values is publication PMC3951440, “Assessing Specific Oligonucleotides and Small Molecule Antibiotics for the Ability to Inhibit the CRD-BP-CD44 RNA Interaction” (PLoS ONE, 2014).

Data set [1] addresses CRD-BP (IMP1) (mouse) (UniProt O88477). Nature of the data set: EMSA. Conditions: EMSA: 5 mM Tris-Cl pH 7.4, 2.5 mM EDTA, 2 mM DTT, 5% glycerol, 0.1 mg/ml BSA, 0.5 mg/ml yeast tRNA, 5 U RNasin; 30 C with ice steps; 40 nM RNA probe.
Data set [2] shares this target. Nature of the data set: competition. Conditions: EMSA: 5 mM Tris-Cl pH 7.4, 2.5 mM EDTA, 2 mM DTT, 5% glycerol, 0.1 mg/ml BSA, 0.5 mg/ml yeast tRNA, 5 U RNasin; 30 C with ice steps; 40 nM RNA probe.

A word on the Kd: it is the equilibrium constant for the complex coming apart. A lower Kd goes with a tighter complex.

Sequence of CRD-BP (IMP1) (mouse) (O88477 whole entry): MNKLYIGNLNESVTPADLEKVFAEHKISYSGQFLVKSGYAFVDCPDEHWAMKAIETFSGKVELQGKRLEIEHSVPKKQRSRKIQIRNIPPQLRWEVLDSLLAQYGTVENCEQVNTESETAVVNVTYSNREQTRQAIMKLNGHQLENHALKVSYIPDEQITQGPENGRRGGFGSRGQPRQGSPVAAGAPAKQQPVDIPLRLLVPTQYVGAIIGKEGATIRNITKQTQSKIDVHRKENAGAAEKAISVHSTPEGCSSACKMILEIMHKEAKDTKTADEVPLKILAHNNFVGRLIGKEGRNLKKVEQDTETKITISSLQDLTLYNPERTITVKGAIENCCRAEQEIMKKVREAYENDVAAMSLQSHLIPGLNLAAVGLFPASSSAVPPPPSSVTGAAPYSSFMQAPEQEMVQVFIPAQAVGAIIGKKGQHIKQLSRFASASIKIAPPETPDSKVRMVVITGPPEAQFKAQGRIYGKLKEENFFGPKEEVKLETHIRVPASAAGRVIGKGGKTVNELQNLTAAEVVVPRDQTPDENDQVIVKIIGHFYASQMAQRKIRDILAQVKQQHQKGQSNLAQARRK

In turn, “GGAAAUUAGGGCCCAAUUAAUAAUCAGCAAGAAUUUGAUCGUUCCAGUUCCCACUUGGAGGC [P2 RNA]” displayed a binding signal in data set [1] of 5 % bound.

With “GGAAAUUAGGGCCCAAUUAAUAAUCAGCAAGAAUUUGAUCGUUCCAGUUCCCACUUGGAGGCCUUUCAUCCCUCGGGUGUGCUAUGGAUGGCUUCUAACAAAAACUACACAUAUGUAUUCCUGAUCGCCAACCUUUCCCCCACCAGCUAAGGACAUUUCCCAGGGUUAAUAGGGCCUGGUCCCUGGGAGGAAAUUU [CD44 Fragment 4 RNA]”, the Kd in data set [1] was determined as 645 nM. Also, the binding result in data set [2] is listed as “binds”.

For the sequence “GGAAAUUAGGGCCCAAUUAAUAAUCAGCAAGAAUUUGAUCGUUCCAGUUCCCACUUGGAGGCCUUUCAUCCCUCGGGUGUGCUAUGGAUGGCUUCUAACAAAAACUACACAUAUGUAUUCCU [P4 RNA]”, the binding entry in data set [1] is reported as “no binding”.

The sequence “GGAAAUUAGGGCCCAAUUAAUAAUCAGCAAGAAUUUGAUCGUUCCAGUUCCCACUUGGAGGCCUUUCAUCCCUCGGGUGUGCUAUGGAUGGCUUCUAACAAAAACUACACAUAUGUAUUCCUGAUCGCCAACCUUUCCCCCACCAGCUAA [P5 RNA]” had a binding signal in data set [1] of 15 % bound.

Turning to “GGAAAUUAGGGCCCAAUUAAUAAUCAGCAAGAAUUUGAUCGUUCCAGUUCCCACUUGGAGGCCUUUCAUCCCUCGGGUGUGCUAUGGAUGGCUUCUAACAAAAACUACACAUAUGUAUUCCUGAUCGCCAACCUUUCCCCCACCAGCUAAGGACAUUUCCCAGGGUUAAUAGGGCCUGGU [P6 RNA]”, the binding result in data set [1] is recorded as “binds”.
